T1: Human DLL3-NTD (Homo sapiens, UniProt Q9NYJ7)
T1 construct: comprising only the N-Terminal Domain (NTD, residues 27-189); 6xHis (C); made in house; host or cells: Expi293F cells
T1 sequence (Q9NYJ7 27-189): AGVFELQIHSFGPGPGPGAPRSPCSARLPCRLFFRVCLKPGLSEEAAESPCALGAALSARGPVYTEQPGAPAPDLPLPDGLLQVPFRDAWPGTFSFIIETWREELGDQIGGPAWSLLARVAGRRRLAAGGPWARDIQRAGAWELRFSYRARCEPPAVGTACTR

B1: MAM279-DOTAM: GS-MAM279-tag (SEQ ID NO: 15) conjugated to the chelator DOTAM via C-terminal tag and maleimide connector, no radionuclide (conjugate)
chain: GSDLGKKLLEAARAGQDDEVRELLKAGADVNAKDYFSHTPLHLAARNGHLKIVEVLLKAGADVNAKDFAGKTPLHLAADAGHLEIVEVLLKAGADVNAQDIFGKTPADIAADAGHEDIAEVLQKAAGSPTPTPTTPTPTPTTPTPTPTGSDLGKKLLAAAAQGQDDEVRELLKAGANVNAKDLFGYTPLHLAAWRGHLEIVEVLLKAGADVNAKDAAGETPLHLAAWFGHLEIVEVLLKAGADVNAQDLQGKTPADLAAKEGHEDIAEVLQKAAGSGSC
modifications: DOTAM chelator via maleimide on C-terminal tag; Ankyrin repeat protein with tag (GS-MAM279-tag)
B2: MAM279: Two domain (2D) ankyrin repeat protein: serum albumin-specific domain (SEQ ID NO: 7), PT linker, DLL3-specific domain of MAM093 (protein)
chain: DLGKKLLEAARAGQDDEVRELLKAGADVNAKDYFSHTPLHLAARNGHLKIVEVLLKAGADVNAKDFAGKTPLHLAADAGHLEIVEVLLKAGADVNAQDIFGKTPADIAADAGHEDIAEVLQKAAGSPTPTPTTPTPTPTTPTPTPTGSDLGKKLLAAAAQGQDDEVRELLKAGANVNAKDLFGYTPLHLAAWRGHLEIVEVLLKAGADVNAKDAAGETPLHLAAWFGHLEIVEVLLKAGADVNAQDLQGKTPADLAAKEGHEDIAEVLQKAA
modifications: Ankyrin repeat protein (MAM279)
B3: Rova: Rova antibody, DLL3-binding benchmark antibody used as positive control and comparison (antibody, chains of the INN, looked up, V domains shown)
VH: QVQLVQSGAEVKKPGASVKVSCKASGYTFTNYGMNWVRQAPGQGLEWMGWINTYTGEPTYADDFKGRVTMTTDTSTSTAYMELRSLRSDDTAVYYCARIGDSSPSDYWGQGTLVTVSS
VL: EIVMTQSPATLSVSPGERATLSCKASQSVSNDVVWYQQKPGQAPRLLIYYASNRYTGIPARFSGSGSGTEFTLTISSLQSEDFAVYYCQQDYTSPWTFGQGTKLEIK

Columns and labels:
Cyno DLL3-ECD = assay: SPR binding to cyno DLL3-ECD (Example 11); set-up: species or system cynomolgus monkey
Text: The DLL3 target protein from cynomolgus macaque (cyno) was produced similarly to the human target protein. It consisted of the extracellular domain of the cyno DLL3 protein (XP_005589253.1, Gene ID:102115332, residues 27 to 466, purchased from Evitria) linked via an Avi-tag (for site-directed biotinylation), followed by a 3C protease recognition site, to a Fc knob into hole. The target protein was expressed in CHO cells (Chinese hamster ovary cells) by Evitria and purified by a protein A derivative-based affinity chromatography followed by preparative size exclusion chromatography (SEC). The material was up-concentrated in PBS pH 7.4 to 0.53 mg/ml and in vitro biotinylated using recombinant BirA. The final material was monomeric on size exclusion and stored in PBS pH 7.4 at the final concentration of 0.26 mg/ml.
(§1) The binding of 2D ankyrin repeat protein MAM279 as well as of MAM279 conjugated to the chelator DOTAM (the conjugation was performed as described in Example 3) to different target proteins was analyzed by Surface Plasmon Resonance (SPR). Specifically, the proteins analyzed were (i) MAM279 (SEQ ID NO: 11), with a Glycine-Serine (GS) at its N-terminal end and an N-terminal His-tag (SEQ ID NO: 19); and (ii) MAM279 (SEQ ID NO: 11), with a Glycine-Serine (GS) at its N-terminal end and a tag (SEQ ID NO: 10) at its C-terminal end (resulting in GS-MAM279-tag (SEQ ID NO: 15)), conjugated to the chelator DOTAM as described in Example 3.
(§2) A surface plasmon resonance (SPR) assay was used to determine the binding kinetics of the two proteins (i.e. MAM279 with and without conjugation to chelator) to different targets: the Extra-Cellular Domain (ECD) of human DLL3, the ECD of cynomolgus monkey DLL3, the N-Terminal Domain (NTD) only of human DLL3, and the NTD dog DLL3. The data were generated using BioRad ProteOn instrument in SPR running buffer (PBS, pH 7.4 containing 0.005% Tween 20©). […] The chip was coated with biotinylated target to reach a signal intensity of 1516 RU (human ECD), 257 RU (human NTD), 1500 RU (cyno ECD) and 228 RU (dog NTD). All analytes (various concentrations in 3-fold dilutions ranging from 500-6.17 nM) were injected in succession for 240 s (100 μl/min) and dissociation was recorded for 10800 s (100 μl/min). Each injection was followed by a regeneration step with 16 mM H3PO4 for 18 s. […] The obtained SPR traces were used to determine on-rate and off-rate interaction parameters.

Human DLL3-NTD = target: T1, Human DLL3-NTD; assay: SPR binding to human DLL3-NTD (Example 11); conditions: immobilized biotinylated target, 1:1 Langmuir, Table 14
Experimental: The truncated human DLL3 construct, comprising only the N-Terminal Domain (NTD, residues 27-189), was designed with a C-terminal 6×His and Avi-tag. Co-expression was carried in Expi293F cells and purification was performed via Ni-NTA affinity chromatography followed by SEC. The final material was monomeric on size exclusion and stored in PBS pH 7.4 at the final concentration of 0.26 mg/ml.
as §1, §2

[1] = system: hDLL3-expressing MC38 (MC38-hDLL3) colon carcinoma cells; assay: Internalization in MC38-hDLL3 cells; assay type: cell-based; conditions: AF488 label with anti-AF488 quencher, 37° C.
Experimental: (§3) Studies were performed to determine whether a half-life extended DLL3-specific ankyrin repeat protein, as described herein, is internalized upon binding to cells expressing DLL3 on their surface. The specific ankyrin repeat protein tested was MAM279 (SEQ ID NO: 11) (with a Glycine-Serine (GS) at its N-terminal end). […] As a comparison, internalization was also tested for Rova antibody. Internalization was investigated on different cell types expressing DLL3 on their surface, namely SHP-77 lung carcinoma cells, NCI-H82 lung carcinoma cells, and hDLL3-expressing MC38 (MC38-hDLL3) colon carcinoma cells. In brief, DARPin and antibody were pre-incubated and labelled with fluorescently labelled detection antibodies (Fab-AF488) and added to 5×10^4 cells/well in a 96-well plate (100 nM DARPin, 10 nM antibody control) and incubated for 1h on ice. Cells were washed once with PBS and then incubated for different timepoints (0 min, 15 min, 30 min, 1 h and/or 4 h) at 37° C. in PBS with 2% FCS. […] Raw fcs files were exported and analyzed using FlowJo software. MFI values of live AF488-positive cells were exported from FlowJo and plotted using GraphPad Prism software. % internalization was determined by normalizing to non-binding control DARPin (for MAM279) or non-binding isotype control IgG (for Rova). […]

[2] = system: SHP-77 lung carcinoma cells; assay: Internalization in SHP-77 cells; assay type: cell-based, human; conditions: AF488 label with anti-AF488 quencher, 37° C.
Experimental: as §3

[3] = system: NCI-H82 lung carcinoma cells; assay: Internalization in NCI-H82 cells; assay type: cell-based, human; conditions: AF488 label with anti-AF488 quencher, 37° C.
Experimental: as §3

[4] = SPR, immobilized biotinylated target, 1:1 Langmuir, Table 15

| Molecule | Koff Cyno DLL3-ECD (Cyno DLL3-ECD; [4]) [s⁻¹] | Kon Cyno DLL3-ECD (Cyno DLL3-ECD; [4]) [M⁻¹ s⁻¹] | Koff Human DLL3-NTD (Human DLL3-NTD) [s⁻¹] | Kon Human DLL3-NTD (Human DLL3-NTD) [M⁻¹ s⁻¹] | internalization [1] | fold lower affinity (higher KD) for cynomolgus monkey DLL3-ECD than for human DLL3-ECD (Cyno DLL3-ECD; SPR KD comparison) | Kd (Cyno DLL3-ECD; [4]) [nM] | Kd (Human DLL3-NTD) [nM] | internalization [2] | internalization [3] |
| --- | --- | --- | --- | --- | --- | --- | --- | --- | --- | --- |
| B1 | 0.00125 | 36000 | 1.99e-05 | 50400 | – | – | – | – | – | – |
| B2 | 0.000978 | 44500 | 1.54e-05 | 58700 | similarly internalized | about 100 fold | 22 | 0.263 | similarly internalized | similarly internalized |
| B3 | – | – | – | – | internalization | – | – | – | internalization | internalization |

From patent US20250332297A1, “DLL3-SPECIFIC BINDING CONSTRUCTS AND THEIR USE IN RADIOTHERAPY” (MOLECULAR PARTNERS AG, priority 2024, published 2025)
